Data taken from patent US20210054067A1 (ALETHIA BIOTHERAPEUTICS, published 2021).

What was measured:
[1] = molecular target: T1, KAAG1 on the surface of cancer cells (SKOV-3, TOV-21G ovarian cancer cells) (human, UniProt Q9UBP8 31-84); assay: flow cytometry on KAAG1-expressing cancer cells (told in the summary)
T1 construct: endogenous KAAG1 of human cancer cell lines; Also used for the Triton X-100 permeabilized SKOV-3 cells (named in the assay field); also called KAAG1 antigen; cell surface KAAG1
T1 sequence: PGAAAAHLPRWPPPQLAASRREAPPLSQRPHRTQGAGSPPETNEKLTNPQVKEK

[2] = molecular target: T2, Fc-KAAG1 truncated mutant ending at amino acid 35 of KAAG1 (human, not fully specified; biotinylated); assay: ELISA: biotinylated Fc-KAAG1 1-35 on streptavidin plate, OD450
T2 construct: also called KAAG1 truncated Fc-fusion (1-35); not shown: Fc part from vector pYD5
T2 chain: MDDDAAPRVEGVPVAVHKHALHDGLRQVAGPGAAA
Description: (§1) The expression and purification of human recombinant KAAG1 as an Fc fusion protein is found in PCT/CA2009/001586. To carry out the binding of Fc-KAAG1 to the antibody preparation, the Fc-KAAG1 was biotinylated with NHS-biotin (Pierce, Rockford, Ill.) and 10 ng/well was coated in a streptavidin 96-well plate for 1 h at room temperature. Purified chimeric 3A4 was added at increasing concentrations and incubated at room temperature for 30 minutes. Bound antibody was detected with HRP-conjugated human anti-kappa light chain antibody in the presence of TMB liquid substrate (Sigma-Aldrich Canada Ltd., Oakville, ON) and readings were conducted at 450 nm in microtiter plate reader. […] When the control unrelated IgG was incubated with the recombinant KAAG1, no binding activity was observed, even at the very highest concentration. […] The binding of 3A4 was compared to the binding of the chimeric 3D3 (described in Tremblay and Filion (2009)), that has different epitope specificity (see Example 2). The binding activity of 3A4 is very similar to 3D3 in this type of assay (see FIG. 1).
(§2) Based on the teachings of Tremblay and Filion (2009), it was known that other antibodies interacted with specific regions of recombinant KAAG1. Thus, anti-KAAG1 antibody 3C4, 3D3, and 3G10 interacted with the regions 1-35, 36-60, and 61-84 of KAAG1, respectively. […]

[3] = molecular target: T3, Fc-KAAG1 truncated mutant ending at amino acid 60 of KAAG1 (human, UniProt Q9UBP8 1-60, biotinylated); assay: ELISA: biotinylated Fc-KAAG1 1-60 on streptavidin plate, OD450
T3 construct: also called KAAG1 truncated Fc-fusion (1-60); not shown: Fc part from vector pYD5
T3 sequence: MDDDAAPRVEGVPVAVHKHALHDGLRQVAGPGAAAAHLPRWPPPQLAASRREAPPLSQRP
Description: as §1, §2

[4] = molecular target: T4, recombinant human KAAG1 (purified protein) (human, UniProt Q9UBP8 1-84, limits assumed); assay: surface plasmon resonance (told in the summary); summary statement; form of 3A4 and SPR set-up not stated
T4 construct: also called gel filtration purified KAAG1
T4 sequence: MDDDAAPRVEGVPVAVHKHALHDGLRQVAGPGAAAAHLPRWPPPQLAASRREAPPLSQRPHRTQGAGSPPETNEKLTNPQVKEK

[5] = molecular target: T4, recombinant human KAAG1 (purified …); assay: SPR (ProteOn XPR36), antibody captured on anti-human IgG Fc, KAAG1 as analyte, 25 C; parent LcHc (chimeric 3A4)
Description: Immediately after the activation, a 13 μg/mL solution of anti-human IgG Fc fragment specific in 10 mM NaOAc pH 4.5 was injected in the analyte direction at a flow rate of 25 μL/min until approximately 8000 resonance units (RUs) were immobilized. Remaining active groups were quenched by a 300 s injection of 1M ethanolamine at 30 μL/min in the analyte direction, and this also ensures mock-activated interspots are created for blank referencing. The screening of the 3A4 variants for binding to KAAG1 occurred in two steps: an indirect capture of 3A4 variants from cell supernatant onto the anti-human IgG Fc fragment specific surface in the ligand direction (vertical) followed by a KAAG1 injection in the analyte direction. Firstly, one buffer injection for 30 s at 100 uL/min in the ligand direction was used to stabilize the baseline. […] Four to five 3A4 variants along with wild-type 3A4 were simultaneously injected in individual ligand channels for 240 s at flow 25 μL/min. […] The first ligand channel was left empty to use as a blank control if required. […]
Sensorgrams were aligned and double-referenced using the buffer blank injection and interspots, and the resulting sensorgrams were analyzed using ProteOn Manager software v3.0.

fold less antibody required compared to 3G10 [1]: ~10 fold
Kd [4]: ~0.057 nM
Kd [5]: 0.057 nM
B1: 3A4 chimeric anti-KAAG1 antibody (mouse-human chimeric IgG1) (antibody, V domains shown)
VH: QIQLVQSGPEMVKPGASVKMSCKASGYTFTDDYMSWVKQSHGKSLEWIGDINPYNGDTNYNQKFKGKAILTVDKSSSTAYMQLNSLTSEDSAVYYCARDPGAMDYWGQGTSVTVSS
VL: DVVMTQTPLSLAVSLGDQASISCRSSQSLLHSNGNTYLEWYLQKPGQSPKLLIHTVSNRFSGVPDRFSGSGSGTDFTLKISRVEAEDLGVYYCFQGSHVPLTFGAGTRLELKR
notes: also called chimeric 3A4; murine 3A4
binding result [2]: no binding (tested: not given on the sheet)
binding result [3]: no binding (tested: not given on the sheet)
